Test results published in patent publication US20240409645A1 (DUALYX, published 2024).

T1: human IL-2 receptor (IL-2Rα/IL-2Rβ/γc) (human, UniProt P01589 22-272; P14784 27-551; P31785 23-369)
T1 sequence 1: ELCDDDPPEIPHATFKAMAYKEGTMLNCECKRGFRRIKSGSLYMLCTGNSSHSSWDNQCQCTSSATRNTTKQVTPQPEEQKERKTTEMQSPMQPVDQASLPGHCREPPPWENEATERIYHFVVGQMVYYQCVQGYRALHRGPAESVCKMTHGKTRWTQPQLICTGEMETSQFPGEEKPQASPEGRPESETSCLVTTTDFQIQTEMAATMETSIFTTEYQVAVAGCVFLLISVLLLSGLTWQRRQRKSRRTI
T1 sequence 2: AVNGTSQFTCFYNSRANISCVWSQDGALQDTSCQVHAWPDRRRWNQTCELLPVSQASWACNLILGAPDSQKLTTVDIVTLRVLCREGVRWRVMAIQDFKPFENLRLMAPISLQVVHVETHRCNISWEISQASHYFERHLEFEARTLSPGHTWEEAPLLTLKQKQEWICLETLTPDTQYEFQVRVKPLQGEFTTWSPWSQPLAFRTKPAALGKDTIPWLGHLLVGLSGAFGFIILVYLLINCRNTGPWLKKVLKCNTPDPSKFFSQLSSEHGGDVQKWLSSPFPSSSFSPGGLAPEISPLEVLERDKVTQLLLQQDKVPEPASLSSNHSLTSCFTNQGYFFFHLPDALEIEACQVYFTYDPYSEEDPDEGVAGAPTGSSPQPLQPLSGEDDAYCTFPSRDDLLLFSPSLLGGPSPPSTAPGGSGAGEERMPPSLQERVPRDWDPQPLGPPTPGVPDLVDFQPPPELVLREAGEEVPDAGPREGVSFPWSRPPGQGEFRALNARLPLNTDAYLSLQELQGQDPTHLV
T1 sequence 3: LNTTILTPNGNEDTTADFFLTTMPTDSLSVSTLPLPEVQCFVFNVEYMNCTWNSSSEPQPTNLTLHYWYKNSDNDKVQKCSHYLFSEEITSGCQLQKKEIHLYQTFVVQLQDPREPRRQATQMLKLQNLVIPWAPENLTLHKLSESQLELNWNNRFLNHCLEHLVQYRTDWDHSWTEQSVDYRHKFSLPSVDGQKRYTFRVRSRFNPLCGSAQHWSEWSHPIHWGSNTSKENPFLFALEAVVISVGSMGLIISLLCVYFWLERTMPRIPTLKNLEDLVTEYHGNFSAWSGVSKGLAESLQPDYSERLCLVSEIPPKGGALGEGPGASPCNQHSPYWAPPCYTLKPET

B1: DC00046 (other)
chain 1: QVQLVESGGGLVQPGGSLRLSCATSGFTFRNNFMSWVRQAPGKGLEWVSTISYGGESTTYAESVKGRFTISRDNAKNTLYLQMNNLKPEDTAVYYCAKATSYDSIRSGSRGQGTQVTVSSGGGGSGGGGSGGGGSQVQLVESGGGLVQPGGSLRLSCATSGFTFRNNFMSWVRQAPGKGLEWVSTISYGGESTTYAESVKGRFTISRDNAKNTLYLQMNNLKPEDTAVYYCAKATSYDSIRSGSRGQGTQVTVSSDKTHTCPPCPAPEAAGGPSVFLFPPKPKDTLMISRTPEVTCVVVDVSHEDPEVKFNWYVDGVEVHNAKTKPREEQYNSTYRVVSVLTVLHQDWLNGKEYKCKVSNKALGAPIEKTISKAKGQPREPQVYTLPPSRDELTKNQVSLTCLVKGFYPSDIAVEWESNGQPENNYKTTPPVLDSDGSFLLYSKLTVDKSRWQQGNVFSCSVMHEALHNHYTQKSLSLSPGK
chain 2: EVQLVESGGGLVQTGGSLRLSCAASGGTFSRDAMAWFRQVPGKEREFVALISWSGATTNYADSVKGRFAISRDNGKNTVYLQMNRLKPADTAIYYCAADRRPMGSRSYFEPTEYDDWGQGTQVTVSSGGGGSGGGGSGGGGSQVQLVESGGGLVQPGGSLRLSCATSGFTFRNNFMSWVRQAPGKGLEWVSTISYGGESTTYAESVKGRFTISRDNAKNTLYLQMNNLKPEDTAVYYCAKATSYDSIRSGSRGQGTQVTVSSGGGGSGGGGSGGGGSQVQLVESGGGLVQAGGSLTLSCAAPGRTFGTDVVGWFRQAPGKEREFVASISRSGDGIYYDDSVKGRFTISRNNAWNTVNLQMNSLKVEDTAVYYCAAGDGWSTYDYWGQGTQVTVSSGGGGSGGGGSGGGGSDKTHTCPPCPAPEAAGGPSVFLFPPKPKDTLMISRTPEVTCVVVDVSHEDPEVKFNWYVDGVEVHNAKTKPREEQYNSTYRVVSVLTVLHQDWLNGKEYKCKVSNKALGAPIEKTISKAKGQPREPQVYTLPPSRDELTKNQVSLTCLVKGFYPSDIAVEWESNGQPENNYKTTPPVLDSDGSFFLYSRLTVDKSRWQQGNVFSCSVMHEALHNHYTQKSLSLSPGK
B2: DC00049 (other)
chain 1: B1 chain 1
chain 2: QVQLVESGGGLVQAGGSLTLSCAAPGRTFGTDVVGWFRQAPGKEREFVASISRSGDGIYYDDSVKGRFTISRNNAWNTVNLQMNSLKVEDTAVYYCAAGDGWSTYDYWGQGTQVTVSSGGGGSGGGGSGGGGSEVQLVESGGGLVQTGGSLRLSCAASGGTFSRDAMAWFRQVPGKEREFVALISWSGATTNYADSVKGRFAISRDNGKNTVYLQMNRLKPADTAIYYCAADRRPMGSRSYFEPTEYDDWGQGTQVTVSSGGGGSGGGGSGGGGSDKTHTCPPCPAPEAAGGPSVFLFPPKPKDTLMISRTPEVTCVVVDVSHEDPEVKFNWYVDGVEVHNAKTKPREEQYNSTYRVVSVLTVLHQDWLNGKEYKCKVSNKALGAPIEKTISKAKGQPREPQVYTLPPSRDELTKNQVSLTCLVKGFYPSDIAVEWESNGQPENNYKTTPPVLDSDGSFFLYSRLTVDKSRWQQGNVFSCSVMHEALHNHYTQKSLSLSPGK
B3: DC00047 (other)
chain 1: B1 chain 1
chain 2: EVQLVESGGGLVQTGGSLRLSCAASGGTFSRDAMAWFRQVPGKEREFVALISWSGATTNYADSVKGRFAISRDNGKNTVYLQMNRLKPADTAIYYCAADRRPMGSRSYFEPTEYDDWGQGTQVTVSSGGGGSGGGGSGGGGSQVQLVESGGGLVQAGGSLTLSCAAPGRTFGTDVVGWFRQAPGKEREFVASISRSGDGIYYDDSVKGRFTISRNNAWNTVNLQMNSLKVEDTAVYYCAAGDGWSTYDYWGQGTQVTVSSGGGGSGGGGSGGGGSDKTHTCPPCPAPEAAGGPSVFLFPPKPKDTLMISRTPEVTCVVVDVSHEDPEVKFNWYVDGVEVHNAKTKPREEQYNSTYRVVSVLTVLHQDWLNGKEYKCKVSNKALGAPIEKTISKAKGQPREPQVYTLPPSRDELTKNQVSLTCLVKGFYPSDIAVEWESNGQPENNYKTTPPVLDSDGSFFLYSRLTVDKSRWQQGNVFSCSVMHEALHNHYTQKSLSLSPGK
B4: DC00050 (other)
chain 1: B1 chain 1
chain 2: QVQLVESGGGLVQPGGSLRLSCATSGFTFRNNFMSWVRQAPGKGLEWVSTISYGGESTTYAESVKGRFTISRDNAKNTLYLQMNNLKPEDTAVYYCAKATSYDSIRSGSRGQGTQVTVSSGGGGSGGGGSGGGGSEVQLVESGGGLVQTGGSLRLSCAASGGTFSRDAMAWFRQVPGKEREFVALISWSGATTNYADSVKGRFAISRDNGKNTVYLQMNRLKPADTAIYYCAADRRPMGSRSYFEPTEYDDWGQGTQVTVSSGGGGSGGGGSGGGGSQVQLVESGGGLVQAGGSLTLSCAAPGRTFGTDVVGWFRQAPGKEREFVASISRSGDGIYYDDSVKGRFTISRNNAWNTVNLQMNSLKVEDTAVYYCAAGDGWSTYDYWGQGTQVTVSSGGGGSGGGGSGGGGSDKTHTCPPCPAPEAAGGPSVFLFPPKPKDTLMISRTPEVTCVVVDVSHEDPEVKFNWYVDGVEVHNAKTKPREEQYNSTYRVVSVLTVLHQDWLNGKEYKCKVSNKALGAPIEKTISKAKGQPREPQVYTLPPSRDELTKNQVSLTCLVKGFYPSDIAVEWESNGQPENNYKTTPPVLDSDGSFFLYSRLTVDKSRWQQGNVFSCSVMHEALHNHYTQKSLSLSPGK
B5: DC00048 (other)
chain 1: B1 chain 1
chain 2: QVQLVESGGGLVQPGGSLRLSCATSGFTFRNNFMSWVRQAPGKGLEWVSTISYGGESTTYAESVKGRFTISRDNAKNTLYLQMNNLKPEDTAVYYCAKATSYDSIRSGSRGQGTQVTVSSGGGGSGGGGSGGGGSQVQLVESGGGLVQAGGSLTLSCAAPGRTFGTDVVGWFRQAPGKEREFVASISRSGDGIYYDDSVKGRFTISRNNAWNTVNLQMNSLKVEDTAVYYCAAGDGWSTYDYWGQGTQVTVSSGGGGSGGGGSGGGGSEVQLVESGGGLVQTGGSLRLSCAASGGTFSRDAMAWFRQVPGKEREFVALISWSGATTNYADSVKGRFAISRDNGKNTVYLQMNRLKPADTAIYYCAADRRPMGSRSYFEPTEYDDWGQGTQVTVSSGGGGSGGGGSGGGGSDKTHTCPPCPAPEAAGGPSVFLFPPKPKDTLMISRTPEVTCVVVDVSHEDPEVKFNWYVDGVEVHNAKTKPREEQYNSTYRVVSVLTVLHQDWLNGKEYKCKVSNKALGAPIEKTISKAKGQPREPQVYTLPPSRDELTKNQVSLTCLVKGFYPSDIAVEWESNGQPENNYKTTPPVLDSDGSFFLYSRLTVDKSRWQQGNVFSCSVMHEALHNHYTQKSLSLSPGK

Target: T1, human IL-2 receptor (IL-2Rα/IL-2Rβ/γc)
Assay: cell-based or functional assay

| Binder | Fold Max signal (% pSTAT5+) Treg/NK [fold] | Max signal (% pSTAT5+), NK [% pSTAT5+] | Max signal (% pSTAT5+), Treg [% pSTAT5+] | EC50 (nM) pSTAT5, NK, human PBMCs [nM] | EC50 (nM) pSTAT5, Treg, human PBMCs | fold EC50 NK/Treg [fold] |
| --- | --- | --- | --- | --- | --- | --- |
| B1 | 4 | 6 | 25 | – | – | – |
| B2 | 4 | 27 | 95 | 0.198 | 0.00336 nM | 59 |
| B3 | 1 | 0 | 0 | – | – | – |
| B4 | 7 | 8 | 56 | 0.0326 | 0.00134 nM | 24 |
| B5 | 4 | 26 | 95 | 0.176 | < 0.1 pM | > 1760 |
